Test results published in patent US20200353088A1, “PEPTIDE CONJUGATE CGRP RECEPTOR ANTAGONISTS AND METHODS OF PREPARATION AND USES THEREOF” (Auckland UniServices Limited, priority 2017, published 2020).
Where a SMILES comes first, the peptide text is derived from it. Where no end group is shown, it is not given here. The star is where a group is joined. Ethyl(2-palmitoyloxy) = CCCCCCCCCCCCCCCC(=O)OCC*

Tests used:
[1] = molecular target: T1, AMY1 (CTR/RAMP1) receptor (Homo sapiens, UniProt O60894+P30988); assay: cAMP assay with antagonist pre-incubation, with or without wash step, CTR/RAMP1 transfected Cos 7 cells; type: cell-based; settings: 15 min antagonist pre-incubation, mean ± s.e.m (n)
T1 construct: expressed in transfected cells; host or cells: Cos 7 (African green monkey kidney), transient transfection with polyethylenimine
T1 sequence (P30988 25-474): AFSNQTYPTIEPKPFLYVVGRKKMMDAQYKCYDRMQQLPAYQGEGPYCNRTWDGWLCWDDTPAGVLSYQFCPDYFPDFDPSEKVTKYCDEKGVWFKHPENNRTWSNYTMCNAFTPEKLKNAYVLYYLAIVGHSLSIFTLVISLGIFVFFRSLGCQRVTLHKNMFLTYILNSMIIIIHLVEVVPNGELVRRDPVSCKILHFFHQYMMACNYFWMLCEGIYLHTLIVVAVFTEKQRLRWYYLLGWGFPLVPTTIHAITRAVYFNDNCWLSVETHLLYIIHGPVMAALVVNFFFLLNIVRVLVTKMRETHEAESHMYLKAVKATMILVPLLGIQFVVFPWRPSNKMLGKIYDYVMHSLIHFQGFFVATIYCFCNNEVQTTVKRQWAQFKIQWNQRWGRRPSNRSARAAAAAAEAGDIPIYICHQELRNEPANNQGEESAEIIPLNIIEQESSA
T1 sequence (O60894 27-148): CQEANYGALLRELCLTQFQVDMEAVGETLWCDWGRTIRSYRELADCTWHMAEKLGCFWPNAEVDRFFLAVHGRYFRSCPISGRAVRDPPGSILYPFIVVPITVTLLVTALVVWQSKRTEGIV
Procedure: Cos 7 cells were cultured in Dulbecco's Modified Eagle Medium (DMEM) supplemented with 8% heat inactivated fetal bovine serum and kept in a 37° C. humidified 95% air/5% CO2 incubator. […] In a different specific experimental paradigm, media was replaced with DMEM containing 1 mM isobutylmethylxanthine and 0.1% bovine serum albumin for 30 min. After this period, 25 μl of antagonist or media was added for 15 minutes at 37° C. as a pre-incubation period. After pre-incubation, the antagonist or media were aspirated from some wells, washed once with phosphate-buffered saline and replaced with 75 μl new media. The other wells with antagonist were not washed. […] Once human alpha CGRP was added, the cells were incubated at 37° C. for 15 minutes. The media was then aspirated from the wells and reactions terminated with ice-cold absolute ethanol. […] Calculation of Antagonist Potency Values Data were analysed using Graphpad Prism 7. Antagonist pKB or pA2 values were obtained using Global Schild analysis. […] Where a single concentration of antagonist was used, pA2 values are used to describe antagonist potency.

[2] = molecular target: T2, CGRP (CLR/RAMP1) receptor (Homo sapiens, UniProt O60894+Q16602); assay: Antagonism of CGRP-induced cAMP accumulation in Cos 7 cells transfected with CLR/RAMP1; type: cell-based; settings: transfected Cos-7 cells, cAMP, human alpha CGRP; mean ± s.e.m (n); Global Schild analysis; read-out: Antagonist potency (pKB), CGRP (CLR/RAMP1) (converted)
T2 construct: expressed in transfected cells; host or cells: Cos 7 (African green monkey kidney), transient transfection with polyethylenimine
T2 sequence (Q16602 23-461): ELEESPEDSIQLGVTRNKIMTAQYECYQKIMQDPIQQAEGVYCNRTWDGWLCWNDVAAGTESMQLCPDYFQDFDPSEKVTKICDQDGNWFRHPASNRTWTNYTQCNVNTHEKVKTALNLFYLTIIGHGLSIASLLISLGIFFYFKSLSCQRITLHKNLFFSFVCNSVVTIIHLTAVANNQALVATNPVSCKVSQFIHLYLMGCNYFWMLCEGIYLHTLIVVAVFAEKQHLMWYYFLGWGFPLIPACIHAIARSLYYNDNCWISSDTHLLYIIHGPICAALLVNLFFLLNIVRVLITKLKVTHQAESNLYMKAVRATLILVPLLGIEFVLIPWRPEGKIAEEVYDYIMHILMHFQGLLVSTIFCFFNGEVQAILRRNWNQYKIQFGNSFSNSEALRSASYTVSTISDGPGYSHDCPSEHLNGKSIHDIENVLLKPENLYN
T2 sequence (O60894 27-148): as the sequence (O60894 27-148) above
Procedure: (§1) 1. Antagonism of CGRP-Induced cAMP Accumulation in Transfected CGRP Receptor Expressing Cells
(§2) Simian vacuolating virus 40 (SV40) transformed African green monkey kidney (Cos 7) cells were transiently transfected with calcitonin receptor-like receptor (CLR) or calcitonin receptor (CTR) together with receptor activity-modifying protein 1 (RAMP1) to form CGRP or AMY1(a) receptors.
(§3) On the day of experimentation, media was replaced with 50 μl DMEM containing 1 mM isobutylmethylxanthine and 0.1% bovine serum albumin for 30 min. All peptides were diluted in assay medium and after the 30 min incubation, 25 μl antagonists were added, followed immediately by 25 μl human alpha CGRP (hαCGRP), giving a total assay volume of 100 μl. Once human alpha CGRP was added, the cells were incubated at 37° C. for 15 minutes. The media was then aspirated from the wells and reactions terminated with ice-cold absolute ethanol. Ethanol was evaporated to dryness and cAMP was quantified using a commercially-available assay (LANCE Perkin Elmer).
(§4) 3. Calculation of Antagonist Potency Values
(§5) Data were analysed using Graphpad Prism 7. Antagonist pKB or pA2 values were obtained using Global Schild analysis. […] Where a single concentration of antagonist was used, pA2 values are used to describe antagonist potency.

[3] = molecular target: T1, AMY1 (CTR/RAMP1) receptor; assay: Antagonism of CGRP-induced cAMP accumulation in Cos 7 cells transfected with CTR/RAMP1; type: cell-based; settings: transfected Cos-7 cells
Procedure: as §1, §2, §3, §4, §5

[4] = molecular target: T3, CGRP receptor endogenously expressed in SK-N-MC cells (Homo sapiens, UniProt O60894+Q16602); assay: Antagonism of CGRP-induced cAMP accumulation in SK-N-MC cells; type: cell-based; settings: human alpha CGRP, mean ± s.e.m (n), read-out: SK-N-MC (pA2) (converted)
T3 construct: SK-N-MC are human neuroblastoma-derived cells that endogenously express a CGRP receptor; endogenous in cells; host or cells: SK-N-MC human neuroblastoma-derived cells
T3 sequence (Q16602 23-461): as the sequence (Q16602 23-461) above
T3 sequence (O60894 27-148): as the sequence (O60894 27-148) above
Procedure: The cells were cultured in DMEM supplemented with 8% heat inactivated fetal bovine serum and kept in a 37° C. humidified 95% air/5% CO2 incubator. […] On the day of experimentation, media was replaced with DMEM containing 1 mM isobutylmethylxanthine and 0.1% bovine serum albumin for 30 min. After this period antagonists were added, followed by human alpha CGRP. Once human alpha CGRP was added, the cells were incubated at 37° C. for 15 minutes. The media was then aspirated from the wells and reactions terminated with ice-cold absolute ethanol. […] Calculation of Antagonist Potency Values Data were analysed using Graphpad Prism 7. Antagonist pKB or pA2 values were obtained using Global Schild analysis. […] Where a single concentration of antagonist was used, pA2 values are used to describe antagonist potency.

[5] = molecular target: CGRP receptor endogenously expressed by SK-N-MC human neuroblastoma-derived cells (human, UniProt Q16602 23-461; O60894 27-148); assay: cell-based or functional assay
Sequence of CGRP receptor endogenously expressed by SK-N-MC human neuroblastoma-derived cells (Q16602 23-461, chain 1 of 2): as the sequence (Q16602 23-461) above
Sequence of CGRP receptor endogenously expressed by SK-N-MC human neuroblastoma-derived cells (O60894 27-148, chain 2 of 2): as the sequence (O60894 27-148) above

[6] = molecular target: T4, human CGRP receptor (CLR/RAMP1), transiently transfected in Cos 7 cells (human, UniProt Q16602 23-461; O60894 27-148); assay: cell-based or functional assay
T4 sequence (Q16602 23-461, chain 1 of 2): as the sequence (Q16602 23-461) above
T4 sequence (O60894 27-148, chain 2 of 2): as the sequence (O60894 27-148) above

[7] = molecular target: T4, human CGRP receptor (CLR/RAMP1), …; assay: cell-based or functional assay; remark: listed apart in the source
[8] = molecular target: T4, human CGRP receptor (CLR/RAMP1), …; assay: cell-based or functional assay; remark: listed apart in the source
[9] = molecular target: human AMY1(a) receptor (CTR/RAMP1), transiently transfected in Cos 7 cells (human), P30988; assay: cell-based or functional assay
Sequence of human AMY1(a) receptor (CTR/RAMP1), transiently transfected in Cos 7 cells (human), P30988 (P30988 25-474, chain 1 of 2): as the sequence (P30988 25-474) above
Sequence of human AMY1(a) receptor (CTR/RAMP1), transiently transfected in Cos 7 cells (human), P30988 (O60894 27-148, chain 2 of 2, further chain): as the sequence (O60894 27-148) above

| A2 (antilog of the negative pA2; cAMP assay, SK-N-MC) [5] | antagonist potency pA2 (cAMP assay, SK-N-MC) [5] | A2 (antilog of the negative pA2; cAMP assay, Cos 7) [6] | Selectivity (fold-difference CGRP vs. AMY1) [6] | antagonist potency pKB (cAMP assay, Cos 7) [6] | A2, with wash (cAMP assay, Cos 7) [7] | A2, without wash (cAMP assay, Cos 7) [7] | antagonist potency pA2, with wash (cAMP assay, Cos 7) [7] | antagonist potency pA2, without wash (cAMP assay, Cos 7) [7] | Fold change reduction in pA2 with wash [8] | A2 (antilog of the negative pA2; cAMP assay, Cos 7) [9] | A2, with wash (cAMP assay, Cos 7) [9] | A2, without wash (cAMP assay, Cos 7) [9] | Fold change reduction in pA2 with wash [9] | antagonist potency pA2, with wash (cAMP assay, Cos 7) [9] | antagonist potency pA2, without wash (cAMP assay, Cos 7) [9] | antagonist potency pKB (cAMP assay, Cos 7) [9] | Molecule | further results |
| --- | --- | --- | --- | --- | --- | --- | --- | --- | --- | --- | --- | --- | --- | --- | --- | --- | --- | --- |
|  |  |  |  |  |  |  |  |  |  |  |  |  |  |  |  |  | CCCCCCCCCCCCCCCC(=O)OCCSC[C@H](NC(=O)[C@@H](NC(=O)[C@@H](NC(=O)CNC(=O)CNC(=O)[C@H](CO)NC(=O)[C@H](CCCNC(=N)N)NC(=O)[C@H](CO)NC(=O)[C@H](CC(C)C)NC(=O)[C@H](CC(C)C)NC(=O)CNC(=O)[C@H](C)NC(=O)[C@H](CC(C)C)NC(=O)[C@H](CCCNC(=N)N)NC(=O)[C@H](Cc1c[nH]cn1)NC(=O)[C@@H](NC(=O)[C@@H](N)C(C)C)[C@@H](C)O)C(C)C)C(C)C)C(=O)N[C@@H](CC(N)=O)C(=O)N[C@@H](CC(N)=O)C(=O)N[C@@H](Cc1ccccc1)C(=O)N[C@H](C(=O)N1CCC[C@H]1C(=O)N[C@H](C(=O)N[C@@H](CC(N)=O)C(=O)N[C@H](C(=O)NCC(=O)N[C@@H](CO)C(=O)N[C@@H](CCCCN)C(=O)N[C@@H](C)C(=O)N[C@@H](Cc1ccccc1)C(N)=O)C(C)C)[C@@H](C)O)C(C)C [A5, K24C(S-Pam) CGRP8-37] (H-VTHRLAGLLSRSGGVVC(Ethyl(2-palmitoyloxy))NNFVPTNVGSKAF-NH2) | Kb ([1]; not washed, read-out: pA2, AMY1 (CTR/RAMP1), Without wash (converted)): 0.372 nM; Kb ([1]; washed once with PBS, read-out: pA2, AMY1 (CTR/RAMP1), With wash (converted)): 3.55 nM; Kb [2]: 6.76 nM; Kb ([3]; human alpha CGRP, mean ± s.e.m (n), read-out: Antagonist potency (pKB), AMY1 (CTR/RAMP1) (converted)): 1.78 nM; Kb ([3]; read-out: A2 (antilog of the negative pA2), AMY1 (CTR/RAMP1) (converted)): 1.8 nM; Kb [4]: 0.0871 nM |
| 0.02 nM | 10.7 | 1.7 nM | < 2 fold | 8.78 | 0.46 nM | 0.14 nM | 9.34 | 9.86 | 3.3 fold |  |  |  |  |  |  |  | CVTHRLAGLLSRSGGVVKNNFVPTNVGSKAF (Cys 7 (CGRP numbering; residue 1 of the entry) S-conjugated to 2-(palmitoyloxy)ethyl (S-Pam); C-terminal amide) [7C(S-Pam) CGRP7-37 B1] |  |
| 0.02 nM | 10.8 | 0.59 nM | 12 fold | 9.23 | 3.3 nM | 0.15 nM | 8.48 | 9.82 | 22 fold | 7.1 nM | 2.9 nM | 1 nM | 2.8 fold | 8.54 | 8.98 | 8.15 | C(Ethyl(2-palmitoyloxy))THRLAGLLSRSGGVVKNNFVPTNVGSKAF-NH2 [V8C(S-Pam) CGRP8-37 A4] |  |
| 0.09 nM | 10.1 | 6.8 nM | -4 fold | 8.17 | 0.74 nM | 0.05 nM | 9.13 | 10.3 | 14 fold | 1.8 nM | 3.5 nM | 0.37 nM | 9.6 fold | 8.45 | 9.43 | 8.75 | VTHRLAGLLSRSGGVVC(Ethyl(2-palmitoyloxy))NNFVPTNVGSKAF-NH2 [K24C(S-Pam) CGRP8-37 A5] |  |
